# B1: Set8 (enzyme)
# chain: MIMVRRRQRPAKEAASSSSGGASSGSGIPVDQALPLNVAGNLLEDQYFASPKRKDCRLMKVTQNGQLPEATMMAHNKDNKAGRTIGVPLATRSQTRTIENFFKANAAAKDSQKTIHTEEQLNLGNQELKLDDEELNGQIKLDDEVLKLADKQINENLPFADEVDAKAEQKLMDEELQQVVEELLFDGSSRASSNSPFYQHDMDVMQEIQQTPEIPHIKKVTEPLEGLGSLADFQTHRSALRDSHSSTHSSSTDNIFLQEPVLTLDIDRTPTKASSIKINRSFELAGAVFSSPPSVLNACLNGRFNQIVSLNGQKEALDLPHFDLDQHDSSSCDSGVACGLTANTESPAGQPRRRKPATPHRILCPSPIKTALKVTGGICKVGSADPLSPRKSPRKLPTTTAAVAACKSRRRLNQPKPQAPYQPQLQKPPSQQQQQQQDDIVVVLDDDDDEGDDEDDVRALIKAAEERENQNKAPATANSNKAGMKTMLKPAPVKSKTKSKGPTKGQPPLPLAATNGNREMTDFFPVRRSVRKTKTAVKEEWMRGLEQAVLEERCDGLQVRHFMGKGRGVVADRPFKRNEFVVEYVGDLISIGEAAEREKRYALDENAGCYMYYFKHKSQQYCIDATVDTGKLGRLINHSRAGNLMTKVVLIKQRPHLVLLAKDDIEPGEELTYDYGDRSKESLLHHPWLAF
# B2: GFP-L(3)mbt (natural protein)
# chain: MMALKMLYRGPSSRLENLIEKIQATKEITNNDMYSTHTSSSYSPSISDGTMTPNSHHLIGAPTAAGQEDHPTEGKINGGADGEDLPKPKRLPHFHHHHHHHYHHQQALKIANKLRKINKEAKMGATAGGGATGAASKFDKLTGEGIKSRGDGSYQCQFCEKTFPRLGYLKHHVQSHAEHLPFKCEYCSKLFKHKRSRDRHKKLHTNERNYKCPHCEAAFSRSDHLKIHMKTHDIQKPFQCSMCNRGYNTAAALTSHMQKHKKNAAILAAGGNPNALNYSPRSTGSASASVSSNGSLQKRRYALALASDSSPSRMDFPKRSRSNHVGGTTTTATPTPLLRCSYCPKVTEFSSLEQLNAHLQSVHEQPQTQAVKTPVQEGEGFQLSCEYCTMKFGNIAGLFQHMRSTHMDRLSSPNSYYEHFNRLATAGTFSPRLALDLPKIKPDLGSPERESRPAEDDLPTDLSNNKRRPLTPNPQAQTPLAPPSAPPGVFFCNQCNAGLPDFESFRNHLKSHIAEGMQLVCPHCGMSLPEQSEFERHVVGHFLITGSEFNCSSSCGKSFAKSEDLQQHLLSEHVLTLLKCSLCSELCESRMAMQLHLACAHSQETKLLRCSACLELFRSDAEFHVHVKTRHQLGGHPTLGATSSAPTNPLQCMFCRAVCSSELEMHFHLAAHARQFRCPSCPETFHVEFLLDRHMQSQHGGVKDKEANSPNMGSLYVNALLPPLAAAAAAAAATNNNSSIIDYNVAFKGLFGGASGGAGSGGGGAQSGGAPPSANKFYSPLQVDTNALKAQTSPHPALMYGLSQRYLMEMYAAKSTSPSGNEGVGNSQPPAPQATAPPPPPNASTATFSCGMCERQDLRSEAELHSHRKLAHNLKTGVSLRCAYCAGNFKSRAELEQHMKSCHNSTGKHKCLICDEVFPSPAILAEHKLQHSKVGQSGKCSHCGQPLEDVAAFRAHLSEHGSDGASLPLACICCRQTLHSEFELSLHAKFHTKSSSSGGSLQEPVCALCLEPLPDATEGPAKLCDKCCRKHNLNGKRGKHSEPATSLPAPPSAFVENRCNLCKMILPHAQKLQEHLVEHTFAGTEQRGFNCYICSAVFTAPGGLLNHMGEHGAHSRPYDCNLCPEKFFFRAELEHHQRGHELRPQARPPAAKVEVPSIRNTSPGQSPVRSPTIVKQELYETDTVESAGVEDEPENHPDEEEYIEVEQMPHETRPSGIGSQLERSTSSA
# Biological target: H4K20R recombinant nucleosomes containing FLAG-tagged H2A and H4K20R
# Experiment: pull-down
Binder,fold binding to H4K20R nucleosomes relative to WT nucleosomes [fold],fold binding to H4K20R nucleosomes compared with WT nucleosomes [fold]
B1,14.5,–
B2,–,1.8
